Our source for the Km values is US20050208611A1, “Process for identifying compounds with fungicide activity based on UMP/CMP kinases from fungi” (priority 2003, published 2005).

The test system of data set [1] is O=c1ccn([C@@H]2O[C@H](COP(=O)(O)O)[C@@H](O)[C@H]2O)c(=O)[nH]1. Briefly: purified protein, by the assay type. The note with it: other: substrate Km of the recombinant UMP/CMP kinase from U. maydis, Lineweaver-Burk plot (FIG. 4A/4B).
The test system of data set [2] is Nc1ncnc2c1ncn2[C@@H]1O[C@H](COP(=O)(O)OP(=O)(O)OP(=O)(O)O)[C@@H](O)[C@H]1O. Briefly: purified protein, by the assay type. The note with it: other: substrate Km of the recombinant UMP/CMP kinase from U. maydis, Lineweaver-Burk plot (FIG. 4A/4B).
Procedure: The ADP produced in the reaction is measured by the coupled reaction with pyruvate kinase and lactate dehydrogenase. Here the pyruvate produced in the reaction of the pyruvate kinase is converted to lactate by the lactate dehydrogenase with the use of NADH.
The activity and/or decrease or increase in activity of the inventive polypeptide can therefore occur by coupling this reaction with the enzymatic conversion of the ADP by the pyruvate kinase and the subsequent enzymatic conversion by the lactate dehydrogenase of the pyruvate produced. This makes use of the fact that the pyruvate produced in the reaction of the pyruvate kinase is converted to lactate by the lactate dehydrogenase (LDH) with the consumption of NADH.
The co-substrate NADH consumed in the reaction of the LDH has an extinction maximum at 340 nm.

In general, Km refers to the concentration of substrate that gives half-maximal velocity. Consider “UMP/CMP kinase from Ustilago maydis (Mycosarcoma maydis)”, for which the Km came out at 120 µM in data set [1] and 60 µM in data set [2].
